From patent publication US20200239573A1 (CRESCENDO BIOLOGICS, published 2020)

Tests used:
[1] = target: T1, human PD-1 expressed on cells (CHO human PD-1 cells) (human, UniProt Q15116 21-288); assay: FMAT 1.57 epitope competition on CHO human PD-1 cells; competitor 1.57-Strep; sample kept 4 days in mouse serum
T1 construct: also called CHO TREX human PD-1 cell line; CHO PD-1
Method: (§1) For the epitope competition assay reagents were prepared in FMAT assay buffer. […] Plates were incubated for a minimum of 1.5 hours at room temperature then fluorescence measured in the FL2 (502 nm-537 nm) and FL5 (677-800 nm) channels on the Mirrorball plate reader (TTP) following excitation at 488 nm and 640 nm. Data was expressed as a % of the total binding control (i.e. % control) after subtraction of the background signal determined from the non-specific binding control wells.
(§2) Serum stability of VH and multivalent VH constructs was assessed by measurement of their activity following incubation for 0, 1, 4 or 7 days in mouse serum (Sigma M5905).

[2] = target: T1, human PD-1 expressed on cells (CHO …); assay: FMAT 1.57 epitope competition on CHO human PD-1 cells; competitor 1.57-Strep; sample kept 1 day in mouse serum
Method: as §1, §2

[3] = target: T1, human PD-1 expressed on cells (CHO …); assay: FMAT 1.57 epitope competition on CHO human PD-1 cells; competitor 1.57-Strep; sample kept 1 day in human serum
[4] = target: T2, human PD-1 on primary human CD4+ T cells (human, UniProt Q15116 21-288); assay: flow cytometry, PHA-stimulated human CD4+ T cells, donor 4
T2 sequence (Q15116 21-288): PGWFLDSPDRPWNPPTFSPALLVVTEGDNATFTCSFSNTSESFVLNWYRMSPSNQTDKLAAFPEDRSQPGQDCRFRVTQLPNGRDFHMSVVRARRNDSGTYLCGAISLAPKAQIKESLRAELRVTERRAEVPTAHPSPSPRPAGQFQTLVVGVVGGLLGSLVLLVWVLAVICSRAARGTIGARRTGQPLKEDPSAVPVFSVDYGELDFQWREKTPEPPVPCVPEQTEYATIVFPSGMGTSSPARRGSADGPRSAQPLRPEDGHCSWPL
Method: (§3) Binding of monovalent single domain antibodies and multivalent binding agents to T cells was measured using flow cytometry. […] T-cells were stimulated with 2.5 μg/ml PHA for 2-4 days in RPMI media supplemented with 10% FBS, 2 mM Glutamine, 1× Pen/Strep. Cells were transferred into 96 well plates (75000 per well), blocked for 10 mins with PBS/1% BSA, then incubated with serially diluted VH in staining buffer (PBS/1% BSA) for 1 hour at 4° C. Cells were washed with staining buffer by centrifugation then incubated with 10 μg/ml biotinylated Anti His antibody for 40 mins at 4° C. Cells were washed again then stained with Streptavidin Alexa Fluor-488 (10 μg/ml) and 1:5000 diluted Live Dead near IR stain (Molecular Probes cat no. L10119) for 30 mins at 4° C. After further washing cells were fixed and fluorescence measured by flow cytometry.

[5] = target: T1, human PD-1 expressed on cells (CHO …); assay: FMAT epitope competition on CHO human PD-1 cells; competitor 1 nM 1.1-Strep
[6] = target: T1, human PD-1 expressed on cells (CHO …); assay: FMAT inhibition; 100 pM PD-L1-Fc on CHO human PD-1 cells
Method: as §1, with “All” for “For the epitope competition assay”, “reagents and serially diluted VH” for “reagents”, “2” for “a minimum of 1.5”

[7] = target: T2, human PD-1 on primary human CD4+ T cells; assay: flow cytometry, PHA-stimulated human CD4+ T cells, donor 2
Method: as §3

mouse PD-1 protein = target: T3, mouse PD-1 protein (mouse, UniProt Q02242 25-167); assay: HTRF binding, 2 nM mouse PD-1
T3 construct: Detected with anti human-Fc cryptate, so probably Fc tagged; also called mouse PD-1 (R&D Systems cat no. 1021-PD)
T3 sequence (looked up): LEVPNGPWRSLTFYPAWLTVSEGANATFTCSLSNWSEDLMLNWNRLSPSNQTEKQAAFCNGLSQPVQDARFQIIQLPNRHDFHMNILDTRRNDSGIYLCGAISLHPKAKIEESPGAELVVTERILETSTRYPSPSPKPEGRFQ
Method: e) Species Cross Reactivity Testing Purified […] were tested for their ability to bind to human PD-1 (R&D Systems cat no. 1086-PD), cynomolgus PD-1 (Acro Biosystems cat no. PD-1-05254) and mouse PD-1 (R&D Systems cat no. 1021-PD) in an HTRF Binding assay format. All reagents and serially diluted VH were prepared in assay buffer containing PBS, 0.1% BSA and 0.4M Potassium Fluoride. Samples or assay buffer (non-specific binding) were incubated with 2 nM human/cynomolgus or mouse PD-1, 1 nM Anti human-Fc Cryptate PAb (Cisbio cat. no. 61HFCKLB) and 30 nM anti His-D2 (CisBio cat no 61HISDLA) in black 384-shallow well assay plates for a minimum of 3 hours at room temperature. Time-resolved fluorescent emission at 620 nm and 665 nm was measured following excitation at 337 nm on the BMG PHERAstar plate reader. The HTRF ratio were calculated ((665 nm emission/620 nm emission)*10000) and the data corrected for (non-specific binding) to give the specific binding signal.

[8] = target: T1, human PD-1 expressed on cells (CHO …); assay: cell-based or functional assay
[9] = target: T1, human PD-1 expressed on cells (CHO …); assay: FMAT direct binding to CHO human PD-1 cells; column headed CHO PD-1 binding IC50 (M)
Text: Plates were read in the FL2 (502 nm-537 nm) and FL5 (677-800 nm) channels on the TTP Mirrorball plate reader following excitation at 488 nm and 640 nm.

T1 sequence (Q15116 21-288): as the sequence (Q15116 21-288) above

B1: Humabody® 1.92 (VHH)
VHH: EVQLVESGGGLVKPGGSLRLSCAASGFTFSDESMTWMRQAPGKGLEWVSYISSGGGVKFYADSVKGRFTISRDNAKNSLYLQMNSLRAEDTAVYYCAREAPLRLGESPHDAFDISGQGTMVTVSS
notes: human VH single domain antibody
- IC50 [1]: 4.7 nM
- IC50 [2]: 4.4 nM
- IC50 [3]: 4.9 nM
- EC50 [4]: 0.9 nM
- IC50 [5]: 0.79 nM
- IC50 [6]: 2.8 nM
- EC50 [7]: 1.1 nM
- binding result (mouse PD-1 protein): no binding
- Reporter Assay EC50 [8]: 13 nM
- EC50 [9]: 0.1 nM
